Positions count from the first letter of the chain named. In names and notes the source's numbering stands. Where two headings read alike, the source gives them in different places.
Assays:
crystal structure = biological target: the molecule itself; experiment: crystal structure
[1] = biological target: the molecule itself

B1: Escherichia coli dGTPase, wild type (enzyme)
chain: MAQIDFRKKINWHRRYRSPQGVKTEHEILRIFESDRGRIINSPAIRRLQQKTQVFPLERNAAVRTRLTHSMEVQQVGRYIAKEILSRLKELKLLEAYGLDELTGPFESIVEMSCLMHDIGNPPFGHFGEAAINDWFRQRLHPEDAESQPLTDDRCSVAALRLRDGEEPLNELRRKIRQDLCHFEGNAQGIRLVHTLMRMNLTWAQVGGILKYTRPAWWRGETPETHHYLMKKPGYYLSEEAYIARLRKELNLALYSRFPLTWIMEAADDISYCVADLEDAVEKRIFTVEQLYHHLHEAWGQHEKGSLFSLVVENAWEKSRSNSLSRSTEDQFFMYLRVNTLNKLVPYAAQRFIDNLPAIFAGTFNHALLEDASECSDLLKLYKNVAVKHVFSHPDVERLELQGYRVISGLLEIYRPLLSLSLSDFTELVEKERVKRFPIESRLFHKLSTRHRLAYVEAVSKLPSDSPEFPLWEYYYRCRLLQDYISGMTDLYAWDEYRRLMAVEQ
stoichiometry N (crystal structure): 6

B2: Escherichia coli dGTPase H126A (enzyme)
chain: B1 chain with H126A
stoichiometry N [1]: 6

B3: Escherichia coli dGTPase Y272A (enzyme)
chain: B1 chain with Y272A
stoichiometry N [1]: 6

B4: Escherichia coli dGTPase E129A (enzyme)
chain: B1 chain with E129A
stoichiometry N [1]: 6

— PMC6511015 (Proceedings of the National Academy of Sciences of the …, 2019)
